Measurements from patent US10093706.
Like-named read-outs stand apart in the source and are kept apart here.

Key:
[1] = target: hnRNP-E1 (PCBP1) wild-type (Homo sapiens) (UniProt Q15365); settings: Scatchard
[2] = target: hnRNP-E1(C293S) (Homo sapiens) (UniProt Q15365); settings: no L-homocysteine; Scatchard
[3] = target: hnRNP-E1(G292A) G292A (Homo sapiens) (UniProt Q15365); settings: no L-homocysteine; Scatchard
Sequence of hnRNP-E1(G292A) G292A (Homo sapiens) (Q15365 whole entry A205V/G292A): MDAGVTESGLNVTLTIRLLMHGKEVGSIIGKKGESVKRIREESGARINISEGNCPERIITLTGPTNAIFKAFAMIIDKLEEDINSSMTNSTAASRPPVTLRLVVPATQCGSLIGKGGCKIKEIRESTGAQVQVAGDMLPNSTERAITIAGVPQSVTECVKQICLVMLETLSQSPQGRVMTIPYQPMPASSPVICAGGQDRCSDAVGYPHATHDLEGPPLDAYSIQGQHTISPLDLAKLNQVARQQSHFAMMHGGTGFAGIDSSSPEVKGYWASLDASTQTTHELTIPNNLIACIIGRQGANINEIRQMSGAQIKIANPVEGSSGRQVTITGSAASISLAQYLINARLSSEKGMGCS

Sequence of hnRNP-E1 (PCBP1) wild-type (Homo sapiens) (Q15365 whole entry A205V): as the sequence (Q15365 whole entry A205V/G292A) above, with A292G counted along it
Sequence of hnRNP-E1(C293S) (Homo sapiens) (Q15365 whole entry A205V/C293S): as the sequence (Q15365 whole entry A205V/G292A) above, with A292G, C293S counted along it

Q: “18-nt folate receptor-alpha mRNA cis-element” was tested. Which Kd ([1]; 10 uM L-homocysteine) did it give?
A: The Kd was 0.89 nM.

Q: What about the Kd ([1]; 50 uM L-homocysteine) of the same substance?
A: Its Kd is 0.47 nM.

Q: And the Kd ([1]; no L-homocysteine)?
A: Its Kd is 1.47 nM.

Q: What about the Kd [2] of the same substance?
A: Its Kd is 0.27 nM.

Q: And the Kd [3]?
A: The Kd was 1.57 nM.
